Experiment: soluble on expression in E. coli; label from the status in PepcDB or PDB records

Soluble on expression in E. coli, not soluble:
MGSDKIHHHHHHMLERRHIARDISYSHSAETRPGRIMIRLMENTTGRLRLIKRAKGYDMEVASGRSFWDVIVERYGLSLDVVGGSLDAIPRDKPVILIANHPYGILDGLMMGHILSRTRCDFRMLAHQVFRKAEDLNKVILPIDFAETKEAMKVNLQTRKDALDYLGQGGAIGIFPGGTVSTASKPFAHPMDPGWRGFTARMVAKSDAVVVPLYFDGHTSRLFQIASHLHYTLRMGLLIKEFKKRVDTPVKVVIGEPIGRDVLDPLAKDSKAMMDFLRKATYELSPTPLKSYDYGFEFEEKHRA
MGSDKIHHHHHHMLESTKQFLKKYNINDRVLKLYETAMNDIQNQFKILDDIREFNQLKVLNAFQEERISEAHFTNSSGYGYGDIGRDSLDAVYARVFNTESALVRPHFVNGTHALGAALFGNLRPGNTMLSVCGEPYDTLHDVIGITENSNMGSLKEFGINYKQVDLKEDGKPNLEEIEKVLKEDESITLVHIQRSTGYGWRRALLIEDIKSIVDCVKNIRKDIICFVDNCYGEFMDTKEPTDVGADLIAGSLIKNIGGGIAPTGGYLAGTKDCIEKTSYRLTVPGIGGECGSTFGVVRSMYQGLFLAPHISMEALKGAILCSRIMELAGFEVMPKYDEKRSDIIQSIKFNDKDKLIEFCKGIQTGSPIDSFVSCEPWDMPGYTDQVIMAAGAFIQGSSIELSADAPIREPYIAYLQGGLTFDHAKIGILIALSRIVK
MGSDKIHHHHHHMLFANSLENQLQQWNEVISKQPNNPNAYIRRGMVQFQLAKIEESIDDFDTAEKLDNRIKPYLWQRGLSYYYADRFAEGAQQFEIDLTVNSQDVEETVWRYLCMARLVGVTEARNNLLTVKNDPRLIMRSVYDLFAGHCTPDNVFNIGQTEGNKGKFYSHLYLGLYYEAENNLPLAQEYIVKAADKYKLDDYMWYLAQVHKKLRGWM
MGSDKIHHHHHHMLGASQPYDLGPGIRRGSRGKGGAMTQIPNHDPLSDWGLPGWIYTSERFFKEEQDKVFRPSWQIVCHLNDIPKAGDFHTFDFIGESLVVVRSKDGGVRAFANVCRHRGARLLDGPVGRCGGRIVCPYHAWTYDLEGRLIGVPMRDDYPALDMAKEGLATIEVEVWRGFVFVRLEGDGPSVATMMAPYEDEVAHYRFEELQPFGRVTLRPRAVNWKNISDNYSDGLHIPVAHPGLTRLFGKGYGVEAEAYVDKMWGQLIDEPSESPSERLYQDILPDVAHLPGDRKRLWTYFKLWPNFAFDIYPDQVDFMQFIPISAEQTMIREIAYALPDDRREMKAARYLNWRINRQVNTEDTELVARVQQGMASRTFTAGPLATSEVSLRSFGRKMRALIPESRMPRPPEGW
MGSDKIHHHHHHMLGTLKKLRSRLDEADLVQYNLVVGDQELPLNPLIGQTLSLTHTGNIFCCNCGRKTKKSYSQGHCFPCMQKLASCDMCIMKPETCHFDQGTCREPQWAQSHCFVPHYVYLSNTSGIKVGITRNNQLPTRWIDQGATQGLAIFKVSTRQLSGLIEVELAKLVKDKTNWQAMLKSNAADIDLNAKAQELIPHIEHRLNELAMEKGEYKIERLTETIQQINYPMTAFPKKISSHNFDKVPEVTGVLLGIKGQYLIFDTGVINIRKFSAYEVTVTTN
MGSDKIHHHHHHMLHNTNQPQISRQMNELEAQCGGRLFNRTGRGVELTDLGQHLLPKIRSWLNVTDQLNNEILHSTDTPIGTVRIASLPSTAHPLLSTLYKVLQEKYPLIKLSVREGQGVHLEKWLEDGSVDLAILYRFNPTPKQGDIYLTQADTYLVGCEGDALTQASEVDFKAINQLPLVTFCRPSNWRNFLDHMAYENGVELNIVFEADSISLQTHLVSESRMYTMLGPQALKKASQYTSIQAAKIINPALKRYISLSISKHGYLTPACKAVMEEIRNLADLL
MGSDKIHHHHHHMLHYTKEDLLELGAEITTREIYQQPDVWREAFEFYQAKREEIAAFLQEIADKHDYIKVILTGAGTSAYVGDTLLPYFKEVYDERKWNFNAIATTDIVANPATYLKKDVATVLVSFARSGNSPESLATVDLAKSLVDELYQVTITCAADGKLALQAHGDDRNLLLLQPAVSNDAGFAMTSSFTSMMLTTLLVFDPTEFAVKSERFEVVSSLARKVLDKAEDVKELVDLDFNRVIYLGAGPFFGLAHEAQLKILELTAGQVATMYESPVGFRHGPKSLINDNTVVLVFGTTTDYTRKYDLDLVREVAGDQIARRVVLLSDQAFGLENVKEVALGCGGVLNDIYRVFPYIVYAQLFALLTSLKVENKPDTPSPTGTVNRVVQGVIIHEYQK
MGSDKIHHHHHHMLIEEIMKRNVVTIHEQTTIKEAYQTMILEKFRHLPVITKSKDVIGIVTDQDIRDASPSIFHQDEHQEDLQKPVSSIMTKDVITVHPLNSVAETARLLYENRISCLPVTEGEQLVGIVTDTDVLHTLVELMGAHQPSSQIYVRVENKAGQLADVAAIMKQRQMNIASVLVYPHREDERYKILAFRIQSMDPRGTISDLQSKGYHVLWPNIPGIAT
MGSDKIHHHHHHMLIIKLSAMGDSLCLFPTVRQLALAFPGATIDWLTSNRSNPALFAELPFIRTIFVTPPSLVRALTYLGGWLFRARRYDLTIDYDQYYCISELIAGMSACSAGFRTSLKGTTFSLSVEYDPLLNEKAMFRKLTERVFATYGVSIPDYRAELPELIERFVPSAQLQTLRARLKAQGKPIVGIYPGSGANATFRRWGVGNYVALIERYKDRYAFVLLGGPDERDLQADLKDIDGVFNLIDSMSFKEVAWFLKHTIDLLVGNDGGLLHVAESQAVATVGIFGPALYRKWGSSLERSIGVEKELPCRPCLKNYLGTVPSACCLGTTACLSAISTDDVAQAMHRAVHRIHVVPIAHA
MGSDKIHHHHHHMLKIDNLTKTLENKKVISGISFSLKPSQIVGLIGRNGVGKTTLFRLISGEYVPDQGRVTSDESADARSEIFYLDSPDNFTNAFTANQLARIFKVSYPQLDIDWFKNLLKTNNLSLNKKLSGMSKGQRGLILAISAITSKSKYIFLDEPLDGLDLIIRDQVKQMLITAVSNSDTSVMIASHNLEELDFLADRIILLKNGKIEKDYLPGEELKTANVAKLQMVIEGELPKVVSECGHILEKRGHLYVVLFKDYNSKVASRIKRTKAQYIEQLPVNSDDIFRATFEEDYRLRQSAGKRTNK
MGSDKIHHHHHHMLKSGGSFFYQVAQGYAMTKQPKTIQEMMTLLVEERGLDITGFSDFSTVLLDCNYYRLSGYFRAFQIDPSHGNNRFRNGTHIKDFMIPYLMDEQLRLLILRGTSSLEQTLRAHFAYYLAQNGGAYSYTELSSYKTIKYSDGTEAREVLIENIHKWLERSSEVCIRHYRNNNEPIPIWAAVEAMPFDTLSKMISLHTNTTAVDELNQSLSLGKNRQRAAQIIHSMVYLRNICSHHCRLWNREIVLPPPVLDATAERYGSYAYEDRSVWKSLIVLMDLIDGIKKNSTYSSMLIKQAESNDNYFWGLCHPKRWH
MGSDKIHHHHHHMLLSMQGICKSFNGIPALRAASLEVGEAEVMALVGQNGAGKSTLIKILTGAYRRDEGAVVFAGEGVSFSMPAESQARGIATIYQEINLAPQRSVAENIYLSREPRRFGLIDRRAMRDGAAAVLRAFNLEIDVDQPVAGFSAATRQMVAIARAVTQKARLVIMDEPTSSLDEREVGILFDTIRTLKRGGVSVVFIGHRLEELYRICDRVTIMRDGKTVATAAMADMPKLALVRHMLGKELAAFEAIAKDADEGAQRPVRLSVRNAGAGVRVRDVSLTVREGEISGLAGLLGSGRTETANLIFGADRLQRGEIRYNGEARAYRQPADAIADGIGLVAEDRKVDGIIPDMSIRENMTLALLPKLARAGIVDRARQDEIVERYITALAIKCTSPDQPIKELSGGNQQKVLLGRWLCTDPKLLIVDEPTRGIDIGAKSEILRLLRRLADEGLGVLMISSELEELLAAADRVTVLSDGTSVAVLPRKELSEAALFAAMAHQVE
MGSDKIHHHHHHMLMDSLQEIICEKRTYTRLYHSHKHAYSQFLFPLEGSIDLETEGRQVKLNPDHFLYIPPQCEHRFRSIGRNECLVLDVPLHAMKIDEYRAGSGIEAALDPFWSSIRYLLTEEAKAGTANSLHMLVQYIKEKLQSHSYASIAYIHSHLFERLTIKKLAEIEHYHPAYYSSWFKKQTGKSPQNYIADLRLEEAKRMLMERNETLTVVSEALGFQNLSSFTRWFTKSTGMPPRLYRNTLYSDKK
MGSDKIHHHHHHMLMESVVSVFDPDLTHLPAVAHRLQFSDPESEVPLHVHRKGQLILALHGAVTCTAGNEIWIVPPNCGVWIPGGVPHSARATANAQLNYLFVEPEAANLPGSSCTLAISPLIREMVERLAEERADYLADSHAARIARVLLDELADMPRERFNLPISSHPKIRAIADALTAEPSDRRTLSDWAKQVAMSERSLARLLIRETGLTFGRWRQQLHLVVALRELASGEAVQNVAAGLGYESVNAFITMFKKALGSTPAQYFAQRHAPTKAGSGEQNRV
MGSDKIHHHHHHMLNQSNELNAWDRDHFFHPSTHMGTHARGESPTRIMAGGEGVTVWDNNGRKSIDAFAGLYCVNVGYGRQKIADAIATQAKNLAYYHAYVGHGTEASITLAKMIIDRAPKGMSRVYFGLSGSDANETNIKLIWYYNNVLGRPEKKKIISRWRGYHGSGVMTGSLTGLDLFHNAFDLPRAPVLHTEAPYYFRRTDRSMSEEQFSQHCADKLEEMILAEGPETIAAFIGEPILGTGGIVPPPAGYWEKIQAVLKKYDVLLVADEVVTGFGRLGTMFGSDHYGIKPDLITIAKGLTSAYAPLSGVIVADRVWQVLVQGSDKLGSLGHGWTYSAHPICVAAGVANLELIDEMDLVTNAGETGAYFRAELAKAVGGHKNVGEVRGDGMLAAVEFVADKDDRVFFDASQKIGPQVATALAASGVIGRAMPQGDILGFAPPLCLTREQADIVVSKTADAVKSVFANL
MGSDKIHHHHHHMLPETMKAVVLTAHGGLDKLVYRDDVPVPVCRAGEVLLDVTACGLNNTDVWVREGAYGTDDDPQAVSTWRRGRSTLSFPRIQGADIVGRVIAVGHGVSDARVGERVIVDASIYNRDDDSLADIDYIGHGRDGGYAEYTAVPAQSAHRIDSACSDAELATFWCAYHTGEQMIERAAVKSGETVLITGASGGVGSAIVQLCRARGAVPYAVVSKGKEEAVRELGAQGVMLRDSEDFAAAVERMTGGRPVDVVADLVGGALFGKLLNVLRPEGRYTTAGAIAGPVVQLDLRTMYLKQLQLNGSSQGTRGAFKRVLDYIQAGTIRPVLAATYPLSKFHEAQTQFMAKRFVGNIVVVPDRHYNGTADRT
MGSDKIHHHHHHMLRAGWFFEGIQDNDLLKLKEACKAFNLDGVLLSSLVLSRLYGVCYVLLGTVDGGDLDQPFDLNKLGIGRLEFFTVLKKKYIEADTSKYLSPKEAGGLLKQPEFYKLKLDGKSTQRIHHTRLYKFGHADVVNEEPVSVLQEVYEDLLDHAAVKKASASLVHESKIDVIRTPNLVDKIKEDMKSVAERFLSVGLLKGLNGMIVLDKEEEYDSKSYSFGGLPDLMREFSIQAAGAADMPYTILFGQSPAGMNATGEHDTRNYYDSIATKQTWSLKPFMMKLLRVIVQTTFGRQIPSLDVVFNPLWQLDAKVRSEVEKANAERDSKYLEMGIITEPQIAKQLVIDGVYSVIDEAHIKELETMVKLNDNDNSDPETTPPAGEET
MGSDKIHHHHHHMLRLITDFDGPIIDVSERYYRVYQFCLEKTRRPDQVVQELPKAEFWQLKRSRVPEKQIAFNSGLDEAQAQEFAQLRRQTVHTEAYFNYDTLAPGAVDALLKIQEAGIDLAVMTMRRVRELDYAFKKYDLGRFFPENRCYCLSNDYVKTRDIEDKPLLMARALKELPPAADTWMVGDTEADITAAKNYDIKVMAVESGIRDRTQLELYHPDLIVKDFSTAVDLVLKPKHLV
